{"source": "the supplement of paper PMC12042874", "note": "± gives the uncertainty stated by the source."}
{"experiment": "amyloid nucleation score (Sup35N fusion, yeast selection) (log enrichment); library NNK3; higher = more nucleation; inactive = no reads after selection", "summary_of_the_method": "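Peptides of 20 random codons, each fused to Sup35N, were expressed in psi-negative yeast. Cells were induced with 100 μM copper sulfate for 24 hours and grown 7 days at 30°C on medium lacking adenine and uracil, and plasmid inserts before and after selection were Illumina-sequenced. Nucleation scores are DiMSum log enrichments of output over input reads, centred on the mode score of non-aggregating sequences, and sequences under 100 input reads were excluded.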"}
{"substance": "VFTVF", "amyloid nucleation score": "inactive"}
{"substance": "VFVLCSSLYEGFTYYRWISF", "amyloid nucleation score": "inactive"}
{"substance": "VFVMETTKLFSNDIGVRGGW", "amyloid nucleation score": "0.717 ± 0.15"}
{"substance": "VFVNSYS", "amyloid nucleation score": "inactive"}
{"substance": "VFVPTKYHYMYVLGQWDIFV", "amyloid nucleation score": "inactive"}
{"substance": "VFVVQNGMPTRFECVLGVQR", "amyloid nucleation score": "inactive"}
{"substance": "VFYIVMMLVRAPIFFNGVPT", "amyloid nucleation score": "inactive"}
{"substance": "VFYSKKDRMGGQFS", "amyloid nucleation score": "inactive"}
{"substance": "VGGGVPVTLGFSLRRSWSVV", "amyloid nucleation score": "0.199 ± 0.62"}
{"substance": "VGHPFNCSLDCF", "amyloid nucleation score": "inactive"}
{"substance": "VGMISCKTILEFGGMSSFVM", "amyloid nucleation score": "inactive"}
{"substance": "VGNFYVSNVAFLWVK", "amyloid nucleation score": "inactive"}
{"substance": "VGPLSDSVFMYGT", "amyloid nucleation score": "inactive"}
{"substance": "VGRVRQVAQLDMGPDMYDRV", "amyloid nucleation score": "inactive"}
{"substance": "VGSIARLFVQTAMPVPKLAR", "amyloid nucleation score": "inactive"}
{"substance": "VGSITVRLWYILECGEEVDC", "amyloid nucleation score": "inactive"}
{"substance": "VGSNTVM", "amyloid nucleation score": "-0.572 ± 0.84"}
{"substance": "VGTMKNLERVRVCYD", "amyloid nucleation score": "inactive"}
{"substance": "VGVFSIMV", "amyloid nucleation score": "inactive"}
{"substance": "VGVYITMVYVSIKENRVEGN", "amyloid nucleation score": "0.804 ± 0.17"}
{"substance": "VHAMWKSICNTSCML", "amyloid nucleation score": "2.53 ± 0.052"}
{"substance": "VHFLSTVGMKLTALYKGVVM", "amyloid nucleation score": "inactive"}
{"substance": "VHLQGITSITVGIWPHKHLD", "amyloid nucleation score": "inactive"}
{"substance": "VHSGQLVTMGMYKLLLSSLC", "amyloid nucleation score": "inactive"}
{"substance": "VICGYLYVYVYHGFVGSLLG", "amyloid nucleation score": "inactive"}
{"substance": "VIGWKINGGYPERTS", "amyloid nucleation score": "0.239 ± 0.42"}
{"substance": "VIKALRMVCMGHWSYSVTLS", "amyloid nucleation score": "inactive"}
{"substance": "VINCIDMRLVYMLGETFFNY", "amyloid nucleation score": "2.03 ± 0.083"}
{"substance": "VINRSLCPERFGKGAL", "amyloid nucleation score": "inactive"}
{"substance": "VIRPGQYVIWFSRVILSFLF", "amyloid nucleation score": "inactive"}
{"substance": "VIRSNYWHTLNWLQQNKSRG", "amyloid nucleation score": "inactive"}
{"substance": "VITMGMSLSSVSGLRDYLQE", "amyloid nucleation score": "1.36 ± 0.12"}
{"substance": "VIVCNECLG", "amyloid nucleation score": "0.546 ± 0.42"}
{"substance": "VKISMNYKTQLTWLLFAWIL", "amyloid nucleation score": "inactive"}
{"substance": "VKKLSKVHDSCGMREVLGCH", "amyloid nucleation score": "-0.36 ± 1.1"}
{"substance": "VKLMASEHLSCIGRI", "amyloid nucleation score": "inactive"}
{"substance": "VKNTGLSSNHLEH", "amyloid nucleation score": "1.11 ± 0.13"}
{"substance": "VKREWSAI", "amyloid nucleation score": "inactive"}
{"substance": "VKSISNNSQLSSELN", "amyloid nucleation score": "inactive"}
{"substance": "VKSRNENIDPGCWRLELAPF", "amyloid nucleation score": "inactive"}
{"substance": "VKVCEVSMQNRIFTGHAHFS", "amyloid nucleation score": "inactive"}
{"substance": "VKVLYSIAMGIGHGSIGKVC", "amyloid nucleation score": "-0.835 ± 0.96"}
{"substance": "VKYDDSWYDDWHIYNVYRCK", "amyloid nucleation score": "inactive"}
{"substance": "VKYSLALVSGNRARGYRRCG", "amyloid nucleation score": "inactive"}
{"substance": "VLAMCVYSACMWFGNNAMLH", "amyloid nucleation score": "inactive"}
{"substance": "VLGCVGLCYHRYVNALGGAE", "amyloid nucleation score": "inactive"}
{"substance": "VLGILVDFDLIKV", "amyloid nucleation score": "inactive"}
{"substance": "VLGWGSIVMNDEGELSVGMV", "amyloid nucleation score": "inactive"}
{"substance": "VLIRWRYEAYLSHCGSPCAS", "amyloid nucleation score": "inactive"}
{"substance": "VLKLRVKVNQVVVDYVLESG", "amyloid nucleation score": "inactive"}
{"substance": "VLLGAVYKQNLANQYYSNLY", "amyloid nucleation score": "inactive"}
{"substance": "VLLKRL", "amyloid nucleation score": "inactive"}
{"substance": "VLLVCFLRTRKCSRLLAC", "amyloid nucleation score": "inactive"}
{"substance": "VLPNYPSFNSSYICWYFWYL", "amyloid nucleation score": "inactive"}
{"substance": "VLQHRLVFDFYKFCMSTMVH", "amyloid nucleation score": "inactive"}
{"substance": "VLQYECHVDMCRGRWSLGAI", "amyloid nucleation score": "inactive"}
{"substance": "VLRRSYYRVSRPELPIWSN", "amyloid nucleation score": "-0.153 ± 1.1"}
{"substance": "VLSGNFNTSDFLLMFLITSQ", "amyloid nucleation score": "inactive"}
{"substance": "VLTLLMKVEHTGVSHSVGRV", "amyloid nucleation score": "1.02 ± 0.19"}
{"substance": "VLTYTFRPSVSCSNKSKGSA", "amyloid nucleation score": "0.107 ± 0.35"}
{"substance": "VLVNPILLPMPLQ", "amyloid nucleation score": "inactive"}
{"substance": "VLVSVGLVLWACCLRLQ", "amyloid nucleation score": "inactive"}
{"substance": "VLWAFNLMLVDWRIRFQNWA", "amyloid nucleation score": "inactive"}
{"substance": "VLWPADFGCPARVQESGSSQ", "amyloid nucleation score": "-0.387 ± 1.5"}
{"substance": "VLYGRSGVVEANRC", "amyloid nucleation score": "inactive"}
{"substance": "VLYVRNLMLYGNLCKALLAF", "amyloid nucleation score": "inactive"}
{"substance": "VMAELVSVKVAQVIVR", "amyloid nucleation score": "inactive"}
{"substance": "VMCSWLTGCYIQKNRFQGSL", "amyloid nucleation score": "0.724 ± 0.27"}
{"substance": "VMFLEDSVFV", "amyloid nucleation score": "inactive"}
{"substance": "VMFMIAGNC", "amyloid nucleation score": "inactive"}
{"substance": "VMFRCN", "amyloid nucleation score": "inactive"}
{"substance": "VMIDRWRNASNWIMFISHYR", "amyloid nucleation score": "-0.611 ± 0.98"}
{"substance": "VMKPNIEFGN", "amyloid nucleation score": "inactive"}
{"substance": "VMLNNCRGYLANCDSCSW", "amyloid nucleation score": "inactive"}
{"substance": "VMRIVATQRAGWTGTREPGM", "amyloid nucleation score": "inactive"}
{"substance": "VMSFVFNTSLWSMYIRIGSP", "amyloid nucleation score": "inactive"}
{"substance": "VMSLTR", "amyloid nucleation score": "inactive"}
{"substance": "VMSSCKIRCNDTRTPAAHIC", "amyloid nucleation score": "inactive"}
{"substance": "VMTAGWYLFLLSGSEGYVVS", "amyloid nucleation score": "-0.325 ± 1.2"}
{"substance": "VNCLLSRWCGRHA", "amyloid nucleation score": "inactive"}
{"substance": "VNCWLLAVFTASSATLHNTR", "amyloid nucleation score": "0.776 ± 0.14"}
{"substance": "VNDVLGNEPFRVVGEEEIPG", "amyloid nucleation score": "inactive"}
{"substance": "VNFLSGWEPVIVKYHRSA", "amyloid nucleation score": "inactive"}
{"substance": "VNFYADRASVHVHSVFHTQD", "amyloid nucleation score": "inactive"}
{"substance": "VNGSV", "amyloid nucleation score": "inactive"}
{"substance": "VNITLLRCEGSGMFGRSSKL", "amyloid nucleation score": "1.13 ± 0.11"}
{"substance": "VNLITCKQVSFRCQVSGILC", "amyloid nucleation score": "2.19 ± 0.092"}
{"substance": "VNSDEPMHWRSSGNYRARIV", "amyloid nucleation score": "inactive"}
{"substance": "VNTFNFWCI", "amyloid nucleation score": "2.7 ± 0.081"}
{"substance": "VPCTWDLFYIGRSMWWFLTM", "amyloid nucleation score": "inactive"}
{"substance": "VPISHLFSLVLVRPRMTSRY", "amyloid nucleation score": "inactive"}
{"substance": "VPKKEKWRFDIVL", "amyloid nucleation score": "inactive"}
{"substance": "VPPFPRMEAGGYVHVVAFSV", "amyloid nucleation score": "inactive"}
{"substance": "VPPFTLTSVVYLSFCVCGGD", "amyloid nucleation score": "0.701 ± 0.13"}
{"substance": "VQCRDVLGNDVFCVYHLGVE", "amyloid nucleation score": "inactive"}
{"substance": "VQGLGGNWW", "amyloid nucleation score": "inactive"}
{"substance": "VQGRYLRRVCMRMVPLRRTD", "amyloid nucleation score": "inactive"}
{"substance": "VQISVNSVNLLKRWFIRAGT", "amyloid nucleation score": "inactive"}
{"substance": "VQNNFGVSNAGNGLCWGCIC", "amyloid nucleation score": "2.65 ± 0.051"}
{"substance": "VQRGSTALVFDVSTSIFMNI", "amyloid nucleation score": "1.57 ± 0.12"}
{"substance": "VQVLYVICLSSSMLYRLVVR", "amyloid nucleation score": "inactive"}
{"substance": "VRAGSLYHCVRNPISRGLAV", "amyloid nucleation score": "-0.57 ± 1.8"}
{"substance": "VRFYVLSPKDFWAFLKILFR", "amyloid nucleation score": "inactive"}
{"substance": "VRHGCG", "amyloid nucleation score": "inactive"}
{"substance": "VRIRGWFAGHGNFWFSL", "amyloid nucleation score": "inactive"}
{"substance": "VRKKCLDPDGFLSRLGPAFD", "amyloid nucleation score": "-0.429 ± 0.91"}
{"substance": "VRLFRVLWRIIPDGVSMKSV", "amyloid nucleation score": "inactive"}
{"substance": "VRLTTWLAYNLMVSSDTMFC", "amyloid nucleation score": "inactive"}
{"substance": "VRNNVCRPVCYGWNGGYITV", "amyloid nucleation score": "inactive"}
{"substance": "VRRSMATLFWCWDYTNLDCI", "amyloid nucleation score": "inactive"}
{"substance": "VRSCAKLPSVHKYLAQARRL", "amyloid nucleation score": "inactive"}
{"substance": "VRSFFYRSLYQCISRNPCCA", "amyloid nucleation score": "inactive"}
{"substance": "VRSNVKDRFT", "amyloid nucleation score": "inactive"}
{"substance": "VRSTTQHVHLICCNEYFRH", "amyloid nucleation score": "2.82 ± 0.052"}
{"substance": "VRTDYWVGYVIFYHIVSRGL", "amyloid nucleation score": "inactive"}
{"substance": "VSDDLMDGSKNVLFARVEGD", "amyloid nucleation score": "inactive"}
